The source of these data is patent publication CN113402607A (BEIJING EASTERN BIOTECH CO LTD, dated 2021).

Residue numbers refer to the chain shown, from its start.

In test [1] the target is LAP-TGFβ1 overexpressed on cells (过表达LAP-TGFβ1的CHO细胞) (UniProt P01137 30-390, limits assumed). The experiment in a line: cell-based or functional assay.
Test [2] addresses LAP-TGFβ1抗原 (coated antigen) (UniProt P01137 30-390, limits assumed). The experiment in a line: competition ELISA on coated LAP-TGFβ1; competitor biotin-labelled 28G11 at 1 μg/ml.

Chain of LAP-TGFβ1抗原 (coated antigen) (P01137 30-390 limits assumed): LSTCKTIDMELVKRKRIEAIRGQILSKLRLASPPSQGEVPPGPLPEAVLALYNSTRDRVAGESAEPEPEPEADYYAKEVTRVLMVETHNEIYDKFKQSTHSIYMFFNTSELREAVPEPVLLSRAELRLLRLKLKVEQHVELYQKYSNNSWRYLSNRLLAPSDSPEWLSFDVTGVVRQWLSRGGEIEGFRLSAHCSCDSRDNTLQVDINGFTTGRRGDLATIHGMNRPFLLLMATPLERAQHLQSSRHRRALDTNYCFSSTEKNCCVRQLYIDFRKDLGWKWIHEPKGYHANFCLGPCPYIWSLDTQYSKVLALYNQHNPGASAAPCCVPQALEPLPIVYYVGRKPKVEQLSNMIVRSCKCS
Chain of LAP-TGFβ1 overexpressed on cells (过表达LAP-TGFβ1的CHO细胞) (P01137 30-390 limits assumed): as above

B1: 抗LAP单克隆抗体 A-1 (全抗, mouse IgG2a / mouse Ck) (antibody, V domains shown)
VH: EVQLEQSGPELKKPGETVKISCKASGYTFTSYGMNWVKQAPGKALKWMGWINTYTGEPTYADDFKGRFAYSLEATANTAYLQIYNLKNEDTATYFCARSGRYTRPLYYIMDFWGQGTSVTVSS
VL: not shown
notes: Full antibody made in HEK293E from vector pTSE; also called A-1抗体
As usually defined, the IC50 is the concentration that inhibits the measured activity by half. Read a high IC50 as lower potency. Take B1: the “IC50(μg/ml), 抑制细胞表面TGFβ1的释放 (PAI-LUC Mv.1.lu reporter cells, luciferase)” value in test [1] was 0.741 µg/mL. The molecule also yielded a 50% inhibitory concentration (IC50) in test [2] of 0.0972 µg/mL.

B2: 抗LAP单克隆抗体 A-3 (全抗, mouse IgG2a / mouse Ck) (antibody, V domains shown)
VH: EVKLQESGAELVMPGASVKMSCKASGYTFTDYWMHWVKQRPGQGLEWIGAIDTSDSYTSYNQKFKGKATLTVDESSSTAYMQLSSLTSEDSAVYYCARKALSGYFDVWGAGTTVTVSS
VL: DIVLTQTPSSLSASLGGKVTITCKASQDIYKYIAWYQHKPGKGPRLLIHYTSTLQPGIPSRFSGSGSGRDYSFSISNLEPEDIATYYCLQYDNLRTFGGGTKLEIKA
notes: Full antibody made in HEK293E from vector pTSE
For B2, the IC50 in test [2] was 0.00695 µg/mL.

B3: 抗LAP单克隆抗体 A-6 (全抗, mouse IgG2a / mouse Ck) (antibody, V domains shown)
VH: QVKLQESGPELVKPGASVKISCKASGYTFTDYNMHWVKQSHGKSLEWIGYFYPYNGGTGYKQKFKSKATLTVDNSSSTAYMELRSLTSEDSAVYYCARNHYYYYAMDYWGQGTSVTVSS
VL: DIVMTQTPSSLAVSAGEKVTMSCKSSQSLLNSRTRKNYLAWYQQKPGQSPKLLIYWASTRESGVPDRFTGSGSGTDFTLTISSVQAEDLAVYYCKQSYNLPWTFGGGTKLEIKA
notes: as for B2
In test [2], B3 displayed a concentration for half-maximal inhibition (IC50) of 0.0557 µg/mL.

B4: 抗LAP单克隆抗体 A-5 (全抗, mouse IgG2a / mouse Ck) (antibody, V domains shown)
VH: EVQLQQSGAVLVRPGDSVKLSCKASGYSFTRSWINWVKQRPGQGLEWIGNIYPSDSYTNYNQKFKDKATLTVDKSSSTAYMQLRSPTSEDSAVYYCTNYYLYYFDYWGQGTTLTVSS
VL: DIVLTQSPSSLAVSTGEKVTMSCKSSQSLLNSRTRKSYLAWYQQKPGQSPKLLIYWTSIRESGVPDRFTGNGSGTDFTLTISSVQAEDLAVYYCKQSYNLFTFGGGTKLEMKR
notes: as for B2
Take B4: the “IC50(μg/ml), 抑制细胞表面TGFβ1的释放 (PAI-LUC Mv.1.lu reporter cells, luciferase)” value in test [1] is 1.69 µg/mL. In test [2], this molecule came in with a half-inhibitory concentration (IC50) of 0.0526 µg/mL.

B5: 抗LAP单克隆抗体 A-4 (全抗, mouse IgG2a / mouse Ck) (antibody, V domains shown)
VH: EVKLQESGPGLVAPSQSLSITCTVSGFSLTTYGVSWVRQPPGKGLEWLGIIWGDGTTIYQSGLISRLSISKDDSKSQVFLKLSSLQTDDTATYYCAKHYFVMDYWGQGTSVTVSS
VL: B4 VL with T15A, S22N, T34I, S37N, T57A, I59T, N71S, F101W, M111I, R113A
notes: as for B2
Consider B5, for which, in test [2], the IC50 was determined as 0.00805 µg/mL.

B6: 抗LAP单克隆抗体 A-2 (全抗, mouse IgG2a / mouse Ck) (antibody, V domains shown)
VH: EVQLEESGAELVRSGASVKLSCTASGFNFNDYYMHWVKQRPEQGLEWIGWIDPENGDTEYAPKFQVKATMTADTSSNTAYLHLSSLASEDTAVYYCNTPTEDMDYWGQGTSVTVSS
VL: DIVMTQSPSSLAVSAGEKVTMSCKSSQSLFNSRTRKNYLAWYQQKPGQSPKLLIYWASTRGSGVPDRFTGSGSGTDFTLTISSVQAEDLAVYYCKQSYNLLTFGAGTKLELKA
notes: as for B2
B6 came in with an IC50 in test [2] of 0.0764 µg/mL.
